From paper doi:10.1101/2025.10.22.683608

The binders below were run against T1, ZBP1-Zα (UniProt Q9H171 8-70) (assay: SPR).
T1 sequence: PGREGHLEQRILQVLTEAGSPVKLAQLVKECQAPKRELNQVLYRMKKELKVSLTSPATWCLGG

Row | Binder | Kd [µM]
1 | A4 (ssDNA) DNA: TTCAGCACTCCACGCATAGCACGCCCGCCACCCCCTCTCCTGGCCATCCGCGCACACCTATGCGTGCTACCGTGAA | 0.255

The binders below were run against T2, ADAR1-Zα (UniProt P55265 134-198) (assay: SPR).
T2 sequence: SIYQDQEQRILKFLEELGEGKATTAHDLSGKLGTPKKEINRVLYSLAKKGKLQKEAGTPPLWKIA

Row | Binder | Kd [µM]
2 | A15 (ssDNA) DNA: TTCAGCACTCCACGCATAGCCCGGCGTGAAGACCCGTGTGCTTTCAGGTCGCCCGCCCTATGCGTGCTACCGTGAA | 0.103 ± 0.017
3 | A3 (ssDNA) DNA: TTCAGCACTCCACGCATAGCCGACCCGCGCCGCATTCACTGCCTACTGCCCGCCGCCCTATGCGTGCTACCGTGAA | 0.0161 ± 0.0037
4 | A5 (ssDNA) DNA: TTCAGCACTCCACGCATAGCCCGCCCCCCGCTACTCCCCTCCTGAGTTGCCGTCGCCCTATGCGTGCTACCGTGAA | 0.002 ± 0.0003
5 | A10 (ssDNA) DNA: TTCAGCACTCCACGCATAGCACACGACCGAACTCGCCAACCCTGTCGTCCCGCCCGCCTATGCGTGCTACCGTGAA | 0.0992 ± 0.0253
6 | A4 (ssDNA) DNA: TTCAGCACTCCACGCATAGCACGCCCGCCACCCCCTCTCCTGGCCATCCGCGCACACCTATGCGTGCTACCGTGAA | 0.0021 ± 0.0004
7 | A6 (ssDNA) DNA: TTCAGCACTCCACGCATAGCCCGCACCCAGCCGCGACTGCCCCCTGGTTCGGCCCGCCTATGCGTGCTACCGTGAA | 0.0202 ± 0.0022
8 | A14 (ssDNA) DNA: TTCAGCACTCCACGCATAGCACGCCGCCGAAGCAAACCCACGTCCTCGCCCACGGCCCTATGCGTGCTACCGTGAA | 0.0967 ± 0.0114
9 | A7 (ssDNA) DNA: TTCAGCACTCCACGCATAGCGACGGGCCAACACCCCAGGTTCGCGTCCCCGCCTGCCCTATGCGTGCTACCGTGAA | 0.0277 ± 0.0031
10 | A11 (ssDNA) DNA: TTCAGCACTCCACGCATAGCCCGGTGCCGACCGAACCACCGTTGCCCTCCGCATGCCCTATGCGTGCTACCGTGAA | 0.104 ± 0.01
11 | A16 (ssDNA) DNA: TTCAGCACTCCACGCATAGCACACCGCCCCCCTCTACTCGGCACACTCGCCCGCCCCTATGCGTGCTACCGTGAA | 0.103 ± 0.0119
12 | A9 (ssDNA) DNA: TTCAGCACTCCACGCATAGCCGACCACCCCCCCGACCCGGTGTCACTCCCCGCGCCCCTATGCGTGCTACCGTGAA | 0.0265 ± 0.0055
13 | A12 (ssDNA) DNA: TTCAGCACTCCACGCATAGCACACGCGCGAAGACCCCCACCGATCCGGCCGCTCGTCCTATGCGTGCTACCGTGAA | 0.104 ± 0.0292
14 | A1 (ssDNA) DNA: TTCAGCACTCCACGCATAGCCGGACGCGCCCCTCTTCCTTGTGTGCTCTCGCCCGCCCTATGCGTGCTACCGTGAA | 0.0317 ± 0.005
15 | A8 (ssDNA) DNA: TTCAGCACTCCACGCATAGCCCGCCACCACCAATCCTCACACTAGTCCGGCCCGGTCCTATGCGTGCTACCGTGAA | 0.0998 ± 0.0246
16 | A13 (ssDNA) DNA: TTCAGCACTCCACGCATAGCCCGGCCGACGGAACAATCCGTGTTCACTCGTCGCACCCTATGCGTGCTACCGTGAA | 0.0295 ± 0.0076
17 | A2 (ssDNA) DNA: TTCAGCACTCCACGCATAGCCGGCCAGCCAAGTCCCCGCTCCTCACGGCCCCCCGCCCTATGCGTGCTACCGTGAA | 0.0257 ± 0.0062

Molecular target: T2, ADAR1-Zα
Experiment: SPR
Remark: another data set of the same source

Row | Binder | Kd [µM]
18 | A4 (ssDNA) DNA: TTCAGCACTCCACGCATAGCACGCCCGCCACCCCCTCTCCTGGCCATCCGCGCACACCTATGCGTGCTACCGTGAA | 0.0018
